Reference: patent EP1557429A1 (Vectron Therapeutics AG, dated 2005)
Where a chain is given by its changes, count along the chain named.

B1: EGF1 library clone 3 (phage-displayed EGF variant) (other)
chain: NSDSECPLSHDGYCLHDGVCMYIEALDEYACNCVVGYIGERCQYRDLRWWELR
modifications: displayed on phage as a coat protein fusion (pHEN3)
notes: also called EGF1 # 3; not shown: phage coat protein fusion partner of phagemid pHEN3 (and any vector tags) at the C end
B2: HisEGFm1 (EGFm1 with N-terminal hexahistidyl tag) (ligand, human, UniProt P01133 971-1023, looked up)
chain: B1 chain with E28Q, R45S, R48S, R53S
notes: mature; Clone 6 of the EGF2 library selection, expressed in the E. coli periplasm and purified by IMAC; The preparation also held molecules of about 15 kDa (dimer size); also called purified EGFm1; soluble EGFm1; not shown: N-terminal hexahistidyl tag (HHHHHH); primer SfiHisEGF encodes ...Met-Ala-Gly-His6-Ala befor

Key:
[1] = target: T1, EGF receptor (UniProt P00533 25-1210, limits assumed); assay: immunofluorescence of phage on A431 cells
T1 construct: whole, on cells; also called epidermal growth factor receptor

[2] = target: T1, EGF receptor; assay: competition of fdEGF phage binding to A431 cells, FACS, inhibition from mean fluorescence intensity

Binder | binding result [1] | IC50 [2]
B1 | binds | –
B2 | – | ~500 nM
